Measured values reported in US20240117054A1 (DRAGONFLY THERAPEUTICS, published 2024).
Where a chain is given by its changes, count along the chain named.

Legend:
[1] = biological target: T1, human FLT3 (hFLT3) expressed on cells (human, UniProt P36888 27-993); assay: cell-based or functional assay
T1 sequence (looked up): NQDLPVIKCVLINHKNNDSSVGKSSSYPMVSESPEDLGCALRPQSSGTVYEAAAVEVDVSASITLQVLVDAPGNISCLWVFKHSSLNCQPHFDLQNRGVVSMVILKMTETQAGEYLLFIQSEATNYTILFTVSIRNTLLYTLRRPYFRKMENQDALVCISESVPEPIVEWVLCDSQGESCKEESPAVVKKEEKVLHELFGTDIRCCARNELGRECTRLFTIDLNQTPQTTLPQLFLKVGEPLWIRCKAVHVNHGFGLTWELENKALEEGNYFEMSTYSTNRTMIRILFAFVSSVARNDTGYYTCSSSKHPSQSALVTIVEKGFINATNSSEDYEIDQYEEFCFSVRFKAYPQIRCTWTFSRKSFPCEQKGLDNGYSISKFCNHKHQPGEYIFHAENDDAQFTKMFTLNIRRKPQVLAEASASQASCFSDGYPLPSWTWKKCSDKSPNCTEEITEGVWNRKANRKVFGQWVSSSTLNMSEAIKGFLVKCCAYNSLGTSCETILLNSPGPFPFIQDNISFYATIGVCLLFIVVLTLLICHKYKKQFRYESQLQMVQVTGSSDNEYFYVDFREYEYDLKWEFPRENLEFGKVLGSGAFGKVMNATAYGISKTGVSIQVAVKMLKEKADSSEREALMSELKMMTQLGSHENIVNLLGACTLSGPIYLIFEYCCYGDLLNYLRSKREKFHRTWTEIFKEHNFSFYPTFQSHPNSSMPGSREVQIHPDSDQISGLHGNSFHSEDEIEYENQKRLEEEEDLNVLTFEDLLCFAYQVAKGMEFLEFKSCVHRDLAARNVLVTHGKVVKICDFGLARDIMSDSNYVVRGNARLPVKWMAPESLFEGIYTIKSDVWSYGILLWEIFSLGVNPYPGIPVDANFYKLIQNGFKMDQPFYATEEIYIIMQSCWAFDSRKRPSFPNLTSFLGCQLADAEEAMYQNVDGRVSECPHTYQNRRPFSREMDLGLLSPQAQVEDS

[2] = biological target: T1, human FLT3 (hFLT3) expressed on cells; assay: flow cytometry, purified mAb on SEM cells
hFLT3-His fusion protein = biological target: T2, hFLT3-His fusion protein (human, UniProt P36888 27-541, limits assumed); assay: SPR, purified murine subclone mAb, hFLT3-His
T2 construct: Soluble recombinant antigen used for immunisation, ELISA, SPR and BLI binning; also called recombinant hFLT3 protein; not shown: His tag
T2 sequence (looked up): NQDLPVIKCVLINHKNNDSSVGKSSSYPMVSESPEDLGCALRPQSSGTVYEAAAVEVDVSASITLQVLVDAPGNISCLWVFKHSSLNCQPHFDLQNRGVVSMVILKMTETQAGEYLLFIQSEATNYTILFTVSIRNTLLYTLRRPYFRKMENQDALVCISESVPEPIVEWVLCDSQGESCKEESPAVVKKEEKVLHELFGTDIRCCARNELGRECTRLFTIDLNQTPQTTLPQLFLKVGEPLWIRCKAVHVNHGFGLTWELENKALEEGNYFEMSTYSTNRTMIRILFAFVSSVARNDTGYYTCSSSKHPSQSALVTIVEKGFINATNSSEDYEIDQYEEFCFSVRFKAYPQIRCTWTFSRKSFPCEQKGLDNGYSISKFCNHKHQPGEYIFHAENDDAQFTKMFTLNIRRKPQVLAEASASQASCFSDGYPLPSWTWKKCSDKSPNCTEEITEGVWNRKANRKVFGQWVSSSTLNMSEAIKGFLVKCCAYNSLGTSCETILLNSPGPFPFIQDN

[3] = biological target: T3, cynomolgus monkey FLT3 (cFLT3) expressed on RMA cells (cynomolgus monkey, UniProt A0A2K5VQ48 27-993); assay: flow cytometry, purified mAb on RMA-cFLT3 cells
T3 construct: whole, on cells; also called RMA-cFLT3; cynomolgus FLT3
T3 sequence: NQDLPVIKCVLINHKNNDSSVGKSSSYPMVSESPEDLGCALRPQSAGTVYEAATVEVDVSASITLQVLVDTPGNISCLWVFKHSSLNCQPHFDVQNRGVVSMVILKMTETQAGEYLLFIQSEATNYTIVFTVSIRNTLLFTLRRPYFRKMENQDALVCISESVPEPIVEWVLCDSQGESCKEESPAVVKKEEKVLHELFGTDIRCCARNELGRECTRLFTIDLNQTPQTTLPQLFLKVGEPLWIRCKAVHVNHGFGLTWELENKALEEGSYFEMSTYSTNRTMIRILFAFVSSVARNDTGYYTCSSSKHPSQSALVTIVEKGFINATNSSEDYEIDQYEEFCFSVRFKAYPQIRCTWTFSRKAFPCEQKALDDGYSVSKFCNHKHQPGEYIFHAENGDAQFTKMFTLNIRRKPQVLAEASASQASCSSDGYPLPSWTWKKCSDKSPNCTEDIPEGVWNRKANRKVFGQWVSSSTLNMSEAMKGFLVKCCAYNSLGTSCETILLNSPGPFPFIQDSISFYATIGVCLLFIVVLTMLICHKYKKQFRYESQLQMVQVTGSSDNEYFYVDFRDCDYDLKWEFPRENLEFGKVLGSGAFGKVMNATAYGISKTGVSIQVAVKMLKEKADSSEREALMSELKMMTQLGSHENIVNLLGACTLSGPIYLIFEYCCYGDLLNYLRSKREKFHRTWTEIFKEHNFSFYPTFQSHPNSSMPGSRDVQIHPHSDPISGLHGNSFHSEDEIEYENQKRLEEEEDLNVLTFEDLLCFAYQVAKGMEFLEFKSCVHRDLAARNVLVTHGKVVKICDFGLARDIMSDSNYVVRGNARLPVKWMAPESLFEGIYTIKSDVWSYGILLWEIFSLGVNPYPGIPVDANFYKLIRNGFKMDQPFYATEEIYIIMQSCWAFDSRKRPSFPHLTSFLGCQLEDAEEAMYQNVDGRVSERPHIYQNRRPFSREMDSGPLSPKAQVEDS

[4] = biological target: T1, human FLT3 (hFLT3) expressed on cells; assay: flow cytometry, purified mAb on RMA-hFLT3 cells
[5] = biological target: T4, FLT3-T227M expressed on MOLM-13 cells (human, UniProt P36888 27-993); assay: flow cytometry on MOLM-13 cells (FLT3-T227M), anti-human IgG secondary antibody, gMFI
T4 construct: whole, on cells; also called hFLT3-T227M; FLT3 with T227M mutation
T4 sequence (looked up): T1 sequence (looked up) with T201M
Description: (§1) Isogenic cell lines ectopically expressing human and cynomolgus monkey FLT3 were used to assess cross-reactivity between human and cynomolgus monkey FLT3. […] cancer cell line RMA expressing hFLT3 or cFLT3 was used to assess tumor antigen binding of FLT3-targeting TriNKET and parental mAb. The human AML cell lines MOLM-13 and MV4-11 and the human ALL cell line REH were used to assess binding ability of the TriNKET or parental mAb. In particular, MOLM-13 cells and MV4-11 cells, which expressed FLT3-T227M and FLT3-ITD, respectively, were used to assess the ability of the FLT3-targeting TriNKET and parental mAb to bind mutant FLT3.
(§2) The cells were then incubated with a fluorophore conjugated anti-human IgG secondary antibody and were analyzed by flow cytometry. The mean fluorescence intensity (MFI) values were normalized to secondary antibody only controls to obtain fold over background (FOB) values.

[6] = biological target: T1, human FLT3 (hFLT3) expressed on cells; assay: flow cytometry on REH cells, anti-human IgG secondary antibody, fold over background (FOB)
Description: as §1, §2

[7] = biological target: T1, human FLT3 (hFLT3) expressed on cells; assay: flow cytometry on RMA-hFLT3 cells, anti-human IgG secondary antibody, fold over background (FOB)
Description: as §1, §2

[8] = biological target: T3, cynomolgus monkey FLT3 (cFLT3) …; assay: flow cytometry on RMA-cFLT3 cells, anti-human IgG secondary antibody, fold over background (FOB)
Description: as §1, §2

B1: FLT3-ligand (ligand, human, UniProt P49771 27-185, looked up)
chain: TQDCSFQHSPISSDFAVKIRELSDYLLQDYPVTVASNLQDEELCGGLWRLVLAQRWMERLKTVAGSKMQGLLERVNTEIHFVTKCAFQPPPSCLRFVQTNISRLLQETSEQLVALKPWITRQNFSRCLELQCQPDSSTLPPPWSPRPLEATAPTAPQPP
pFLT3 levels (pFLT3 ELISA, EOL-1 cells) [1]: 3 fold

B2: 15A11.C8 (antibody, V domains shown)
VH: EVQLQESGGGLVKTGGSRKLSCAASGFTFSDYGMHWVRHTPEKGLEWVVYISSGGNTIFYTDTVKGRFTISRDNAKNTLFLQMTSLRSEDTAVYFCVRQGYYYAMDYWGQGASVTVSS
VL: DIQMTQTTSSLSASLGDRVTIRCRASQDITNYLNWYQQKPDGAVKLLISYTSILQSGVPSRFSGSGSGTDYSLTISNLEQGDVATYFCQQGSSLPWTFGGGTKLEIK
notes: Purified murine mAb from a hybridoma subclone
EC50 [2]: ~1.13 nM | Max MFI [2]: 3860 MFI | Kd (hFLT3-His fusion protein): 10.5 nM | koff (hFLT3-His fusion protein): 0.00048 s⁻¹ | kon (hFLT3-His fusion protein): 45000 M⁻¹ s⁻¹ | EC50 [3]: 0.82 nM | Max MFI [3]: 6510 MFI | EC50 [4]: 0.41 nM | Max MFI [4]: 1410 MFI

B3: GB102 monoclonal antibody in the human IgG1 format (antibody, V domains shown)
VH: QVQLVQSGAEVKKPGASVKVSCKASGYTFTRYVMHWVRQAPGQRLEWMGFINPYNDDTKYNEKFKGRVTITRDTSASTAYMELSSLRSEDTAVYYCARWRQLGSLDSWGQGTTVTVSS
VL: DIVMTQSPDSLAVSLGERATINCRASESVDTYGSSFVHWYQQKPGQPPKLLIYLASNLESGVPDRFSGSGSGTDFTLTISSLQAEDVAVYYCQQNNEEPWTFGGGTKVEIK
notes: also called parental mAb
EC50 (read off the curve) [5]: ~2 nM | EC50 (read off the curve) [6]: ~1 nM | EC50 (read off the curve) [7]: ~0.5 nM | EC50 (read off the curve) [8]: ~0.6 nM
